Measured values reported in the supplement of paper PMC9170038.

Experiments:
[1] = tested on: MS2 coat protein; experiment: apparent KD of MS2 coat protein, switch OFF state (with FMN for OFF switches, without FMN for ON switches); designed switch direction (-1 OFF switch, 1 ON switch): -1; higher = weaker reporter binding; conditions: FMN input: 0 or 200 uM; Eterna round: R93 (includes R88 designs)
In short: (§1)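 Illumina sequencing clusters served as templates for on-chip transcription of the designed RNA switches. SNAP-549-labelled MS2 coat protein was then titrated in twofold steps from 0.7 or 1.5 nM to 3 µM, allowing 0.8–1.5 h per step at first and 10–20 min per step later. The buffer held 100 mM Tris-HCl pH 7.5, 80 mM KCl and 4 mM MgCl2, without or with constant ligand. Apparent KD is the median per design of normalised cluster binding-curve fits.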

[2] = tested on: MS2 coat protein; experiment: apparent KD of MS2 coat protein, switch ON state; designed switch direction (-1 OFF switch, 1 ON switch): -1; higher = weaker reporter binding; conditions: FMN input: 0 or 200 uM; Eterna round: R93 (includes R88 designs)
In short: as §1

Sequence	apparent KD of MS2 coat protein [1] [nM]	apparent KD of MS2 coat protein [2] [nM]
ACAAAACAUGAGGAUCACCCAUGUGAGGAUAUGCGAAACAAACAAACAAACAAACAAAGCAGAAGGCACAACAA [Ex 1 Tesla 3]	31	19.5
ACAAGACAUGAGGAUCACCCAUGUGAGGAUAUGCUCGGAUGACAUGACGUUAGCUAACGCAGAAGGCACAAUAA [Exclusion 1]	36.7	28.7
ACAGUUACAGGAUAUACAUGAAUAACUUCAAAGAAAACUCUACAUGAGGAUCACCCAUGUAGAAGGGUAACUGA [Ex2 Design 200 (fingers crossed): Random 18]	18.8	14.3
ACCUGACAUGAGGAUCACCCAUGUCAGGAUAUGACUUCGAAAAUAAAAUAAAACGAUGUCAGAAGGGACAUGGG [Design 71: Sub-opt PB]	15.3	21.8
ACUAAUGAAGGAUAUACAAACAAAAAAAAAACAAAAAAAAAACAUGAGGAUCACCCAUGUAGAAGGUCAAAAAU [JR_Exc002_Sub1201]	20	22
ACUGAUACAGGAUAUACAUGAGUGAAAAAAGUAAAUCCACUACAUGAGGAUCACCCAUGUAGAAGGGUAUCAGA [Ex2 Design 179: Random 5B]	42.7	52.1
ACUGAUACAGGAUAUACGUGAGUGGAAAAAGUGUUUCCACUACAUGAGGAUCACCCAUGUAGAAGGGUAUCAGA [Ex2 Design 180: Random 6]	91.5	77.4
ACUUGACAUGAGGAUCACCCAUGUCAGGAUAUAGUACGACAAAUAAAUAAAAGUUCUACUAGAAGGGAUAUGGA [Amethyst 53]	15.5	17
AGAAAGCGAGGAUAUGCUCGGGUUGAAUGACGAGAGAAUACACAUGAGGAUCACCCAUGUAGAAGGUGUAUAAA [JR_Exc002_Sub1712]	35.1	54
AGAAAGGCAGGAUAUACAUGAGGAUCACCCAUGUUAAGAAAGUGCGAAAGCACAAGAAGUAGAAGGGCCAAGAA [Rupert goes to college]	19.2	23.2
AGAAAGUCAGGAUAUACGAAAGUGCGAAAGCACACAAGGGAACAUGAGGAUCACCCAUGUAGAAGGGACAAGAA [Diamond 78]	91.7	70.9
AGAACGUCAGGAUAUCGAACAACAAGUAAAUAGAGAAGAAGCGAGAAGGGACAUGAGGAUCACCCAUGUAAGAA [e4-3]	48.9	62.5
AGAACGUCAGGAUAUGCAACAACAAGUAAAUAGAGAAGAAGGCAGAAGGGACAUGAGGAUCACCCAUGUAAGAA [e4]	29.9	44.1
AGAAUACAUGAGGAUCACCCAUGUGAGGAUAUGCAAAUAAAAAUAAAAUAAAAUAAUUGCAGAAGGCACGAAAG [EX 1 May 23]	91.2	44.4
AGCAAACAUGAGGAUCACCCAUGUGAGGAUAUGAACGAAAAUAAAUAAAAAUAAAAGUUCAGAAGGCACGAGCA [66%, Wbt, 26]	35.6	30.4
AGCAAGAGAGGAUAUACAUAAAAAAAAAAAGUCUGAUCCCUACAUGAGGAUCACCCAUGUAGAAGGCUCUGGCA [Ex2 Design 156: Sub-opt 20]	26.2	28.8
AGCUAGUCAGGAUAUACAAAAUGAUUGCAAAAGCAAUCAACACAUGAGGAUCACCCAUGUAGAAGGGACUAGCA [Mat - Exclusion 2 - JL-Eli mod - D44]	19.4	19

Sequence	apparent KD of MS2 coat protein [1] [nM]	apparent KD of MS2 coat protein [2] [nM]
AGCUAGUCAGGAUAUACAAACAUGUCAAAAGACGUGAAAAGACAUGAGGAUCACCCAUGUAGAAGGGACUAGCA [Mat - Exclusion 2 - JL mod - D14]	90.5	29.8
AGCUAGUCAGGAUAUACGAACAGGUCAAAAGACUUGAAGGGACAUGAGGAUCACCCAUGUAGAAGGGACUAGCA [Mat - Exclusion 2 - JL mod - D25]	128	32.2
AGCUAGUCAGGAUAUACGAACAUGUCACAAGACGUGAAGGGACAUGAGGAUCACCCAUGUAGAAGGGACUAGCA [74%, Web mod - With 1 more C's]	203	52.9
AGCUAGUCAGGAUAUACGCAAACGAACGAAGCAGUGAAGGGACAUGAGGAUCACCCAUGUAGAAGGGACUAGCA [Diamond 30]	75.5	26.8
AGGAAACAUGAGGAUCACCCAUGUAAGGAUAUGAACGAAAAUAAAUAAAAAUAAAAGUUCAGAAGGUACGAAAA [66%, Wbt, 7]	55.1	30.7
AGGAAACAUGAGGAUCACCCAUGUCAGGAUAUUUGAAAGAAAAGAAAAGAAAGAAGAAGAAGAAGGGACAAGAA [Narmer]	31.1	27.6
AGGAAACAUGAGGAUCACCCAUGUGAGGAUAUAGAAAAGAAAAGAAAAGAAAGAAGAACUAGAAGGUACAAGAA [Menkauhor Kaiu]	26.8	21
AGGAAACAUGAGGAUCACCCAUGUGAGGAUAUGUAAAAGAAAAGAAAAGAAAGAAGAAACAGAAGGCACAAGAA [Nynetjer]	49.1	49.4
AGGAAGUGAGGAUAUGCAUCAUAUAGUGGACGCUAUAGGAUGUAGAAGGCACAUGAGGAUCACCCAUGUUUAAA [EX4 Malc#40]	32	29
AGGAUGUCAGGAUAUGCGUGAAGAAUAAAACAAAUAACAACGCAGAAGGGACAUGAGGAUCACCCAUGUUAAGA [May 46]	68.3	45.2
AGGAUGUCAGGAUAUGUGUAAAGAAUAAAACAAAUAACAACACAGAAGGGACAUGAGGAUCACCCAUGUUACGA [May 43]	37.3	31.1
AGGAUGUCAGGAUAUGUGUAAAGAAUAAAAGAAAUAACAACACAGAAGGGACAUGAGGAUCACCCAUGUUAAAA [May 35]	44.3	48.8
AGGGAGUCAGGAUAUCGGAAAACAAAACAACGAAAAAAAGACGAGAAGGGACAUGAGGAUCACCCAUGUAAGAA [milkweed 17]	21.6	41.4
AGGGAGUGAGGAUAUGCGAAAGAAAAAGAAGGAAAAAAAAAGCAGAAGGUACAUGAGGAUCACCCAUGUAAAAA [milkweed 7]	16.9	26.5
AGUCAUACAGGAUAUACAUGAGGAUCACCCAUGUUUAUCCUAAAAGGGUGAUCCUCAUGUAGAAGGGUAUGACA [EX3 209: Super Stable 9]	14.5	23.7
AGUGAGUGAGGAUAUUACUGAAGAAUAAAAGAAAUAACAAGUAAGAAGGCACAUGAGGAUCACCCAUGUACACA [May 61]	22	22.4
AGUUGGCGAGGAUAUACAUGAGGAUCACCCAUGUAAAAUAAAUAAAAAGGGAAAAAGAGUAGAAGGCGCUGACA [73%, Moding Norbert Elias, 8]	192	42.6
